We go through nine molecules from patent publication US6869925 (Amgen, dated 2005).

Data set [1] addresses SLPI binding sites on U937 cells (human monocyte cell line; intact cells, PMA-induced cells or plasma membranes) (human). Description: competition with 125I-SLPI, U937 plasma membranes, Kd by Cheng-Prusoff.
The target is the same in data set [2]. Description: competition with 125I-SLPI, U937 plasma membranes, competitor at 268 nM.
For data set [3] the target is unchanged. Description: competition with 125I-SLPI, intact U937 cells, competitor at 0.078 nM.
Data set [4] shares this target. Description: competition with 125I-SLPI, intact U937 cells, competitor at 0 nM.
For data set [5] the target is unchanged. Description: competition with 125I-SLPI, U937 plasma membranes, competitor at 2.56 nM.
For data set [6] the target is unchanged. Kind of data set: competition with 125I-SLPI, intact U937 cells, competitor at 26 nM.
Data set [7] shares this target. Description: competition with 125I-SLPI, intact U937 cells, competitor at 0.25 nM.
For data set [8] the target is unchanged. Description: competition with 125I-SLPI, U937 plasma membranes, competitor at 83.9 nM.
The target is the same in data set [9]. Kind of data set: competition with 125I-SLPI, intact U937 cells, competitor at 2750 nM.
Data set [10] shares this target. Description: competition with 125I-SLPI, U937 plasma membranes, competitor at 2750 nM.
For data set [11], the target named is SLPI binding sites on HuT78 cells (human T cell line) (human). Description: competition with 125I-SLPI, intact HuT78 cells, competitor at 8.2 nM.
Data set [12] has the same target. Kind of data set: competition with 125I-SLPI, intact HuT78 cells, competitor at 2.6 nM.
In data set [13] the target is SLPI binding sites on U937 cells (human monocyte cell line; intact cells, PMA-induced cells or plasma membranes) (human). Description: competition with 125I-SLPI, U937 plasma membranes, competitor at 0.800 nM.
The target is the same in data set [14]. Kind of data set: competition with 125I-SLPI, intact U937 cells, Kd by Cheng-Prusoff.
Data set [15] has the same target. Kind of data set: competition with 125I-SLPI, intact U937 cells, competitor at 0.024 nM.
The target is the same in data set [16]. Description: competition with 125I-SLPI, U937 plasma membranes, competitor at 8.20 nM.
For data set [17], the target named is SLPI binding sites on HuT78 cells (human T cell line) (human). Description: competition with 125I-SLPI, intact HuT78 cells, Kd by Cheng-Prusoff.
Data set [18] has as its target SLPI binding sites on U937 cells (human monocyte cell line; intact cells, PMA-induced cells or plasma membranes) (human). Description: competition with 125I-SLPI, intact U937 cells, competitor at 860 nM.
For data set [19] the target is unchanged. Description: competition with 125I-SLPI, U937 plasma membranes, competitor at 0 nM.
The target of data set [20] is SLPI binding sites on HuT78 cells (human T cell line) (human). Kind of data set: competition with 125I-SLPI, intact HuT78 cells, competitor at 2750 nM.
Data set [21] has as its target SLPI binding sites on U937 cells (human monocyte cell line; intact cells, PMA-induced cells or plasma membranes) (human). Kind of data set: competition with 125I-SLPI, intact U937 cells, competitor at 8.2 nM.
Data set [22] has the same target. Description: competition with 125I-SLPI, intact U937 cells, competitor at 84 nM.
In data set [23] the target is SLPI binding sites on HuT78 cells (human T cell line) (human). Description: competition with 125I-SLPI, intact HuT78 cells, competitor at 0.80 nM.
Data set [24] has the same target. Kind of data set: competition with 125I-SLPI, intact HuT78 cells, competitor at 0 nM.
Data set [25] concerns the target SLPI binding sites on U937 cells (human monocyte cell line; intact cells, PMA-induced cells or plasma membranes) (human). Kind of data set: competition with 125I-SLPI, intact U937 cells, competitor at 270 nM.
Data set [26] has the same target. Description: competition with 125I-SLPI, intact U937 cells, competitor at 0.80 nM.
For data set [27], the target named is SLPI binding sites on HuT78 cells (human T cell line) (human). Description: competition with 125I-SLPI, intact HuT78 cells, competitor at 84 nM.
In data set [28] the target is SLPI binding sites on U937 cells (human monocyte cell line; intact cells, PMA-induced cells or plasma membranes) (human). Kind of data set: competition with 125I-SLPI, intact U937 cells, competitor at 2.6 nM.
In data set [29] the target is HIV-1 envelope protein gp120.

A word on the Kd: it is the concentration at which binding is half-saturated.

As for HIV-1 envelope protein gp120, the Kd in [1] amounted to 400 nM.
Turning to “SLPI mutein Gly 20 (from UniProt P03973 26-132)”, the CPM *SLPI BOUND in [2] is 1620 cpm; in data set [5], 11400 cpm; in data set [8], 2490 cpm; in data set [10], 1500 cpm; in data set [13] it was 14900 cpm; in data set [16], 7400 cpm. In data set [19], the CPM *SLPI BOUND is 18700 cpm. Further, the % *SLPI BOUND was 117% in data set [3]; 130% in [4]; 28% in data set [6]; 110% in [7]; 5% in data set [9]; 103% in [11]. The % *SLPI BOUND was determined as 91% in [12]; 110% in [15]; 5% in [18]; 7% in data set [20]; 49% in data set [21]; 11% in [22]. Besides, the % *SLPI BOUND turned out to be 109% in data set [23]; 100% in [24]; 6% in data set [25]; 91% in [26]; 50% in [27]. Besides, the values for the Kd in data set [1], in [14] and in data set [17] were 5 nM, 3.5 nM and 13 nM, respectively.
On to “SLPI mutein Lys 72 (from UniProt P03973 26-132)”, for which the % *SLPI BOUND in [28] turned out to be 71%; in data set [3], 113%; in [4], 117%; in data set [6], 21%; in data set [7], 103%; in data set [9], 4%. Also, the % *SLPI BOUND in [11] was 116%; in [12], 118%; in [15], 116%; in [18], 5%; in [20], 34%; in data set [21] it was 39%. For the same molecule, the % *SLPI BOUND in data set [22] amounted to 10%; in data set [23] it was 105%; in [24] it was 100%; in data set [25], 6%; in [26] it was 86%; in data set [27], 86%. The CPM *SLPI BOUND in data set [2] turned out to be 3240 cpm; in [5], 12200 cpm; in [8] it was 3500 cpm; in data set [10], 5010 cpm; in [13], 14200 cpm; in data set [16], 7620 cpm. In data set [19], this molecule yielded a CPM *SLPI BOUND of 18700 cpm. In addition, the Kd was 5 nM in data set [1], 2.5 nM in [14] and 200 nM in data set [17].
Turning to “SLPI mutein Val 72 (from UniProt P03973 26-132)”, the % *SLPI BOUND amounted to 80% in data set [28]; 95% in data set [4]; 8% in data set [9]; 81% in data set [11]; 96% in data set [12]; 14% in data set [20]. In addition, the % *SLPI BOUND turned out to be 78% in data set [21]; 48% in data set [22]; 93% in data set [23]; 100% in data set [24]; 90% in data set [26]; 43% in data set [27]. The CPM *SLPI BOUND in data set [2] is 1740 cpm; in data set [5], 11600 cpm; in [8], 3380 cpm; in data set [10] it was 923 cpm; in data set [13], 14000 cpm; in data set [16], 9240 cpm. The CPM *SLPI BOUND in [19] came to 18700 cpm. Further, the Kd in data set [1] is 19 nM; in data set [14] it was 30 nM; in [17], 9 nM.
On to “alpha-1 protease inhibitor (from UniProt P01009 25-418)”, for which, in data set [1], the Kd was 1000 nM.
Turning to “bFGF (from UniProt P09038 143-288) (ligand)”, the CPM *SLPI BOUND in [2] stood at 14400 cpm; in data set [5], 13500 cpm; in [8], 15000 cpm; in data set [10], 14700 cpm; in [13], 14000 cpm; in data set [16], 14500 cpm. Moreover, the CPM *SLPI BOUND in data set [19] was 18700 cpm.
Regarding lysozyme (enzyme), the CPM *SLPI BOUND stood at 14900 cpm in data set [2]; 14700 cpm in [5]; 15500 cpm in data set [8]; 15900 cpm in data set [10]; 15200 cpm in data set [13]; 15000 cpm in data set [16]. In [19], this molecule yielded a CPM *SLPI BOUND of 18700 cpm.

B1: cathepsin G (protein)
chain: IIGGRESRPHSRPYMAYLQIQSPAGQSRCGGFLVREDFVLTAAHCWGSNINVTLGAHNIQRRENTQQHITARRAIRHPQYNQRTIQNDIMLLQLSRRVRRNRNVNPVALPRAQEGLRPGTLCTVAGWGRVSMRRGTDTLREVQLRVQRDRQCLRIFGSYDPRRQICVGDRRERKAAFKGDSGGPLLCNNVAHGIVSYGKSSGVPPEVFTRVSSFLPWIRTTMRS
In the case of B1, the “proteolytic cleavage of gp120 (Western blot)” value in [29] was “gp120 (400 nM) was also incubated at 37° for 30 min, with 10 nM cathepsin G and yielded different bands”.

B2: human neutrophil elastase (protein)
chain: IVGGRRARPHAWPFMVSLQLRGGHFCGATLIAPNFVMSAAHCVANVNVRAVRVVLGAHNLSRREPTRQVFAVQRIFENGYDPVNLLNDIVILQLNGSATINANVQVAQLPAQGRRLGNGVQCLAMGWGLLGRNRGIASVLQELNVTVVTSLCRRSNVCTLVRGRQAGVCFGDSGSPLVCNGLIHGIASFVRGGCASGLYPDAFAPVAQFVNWIDSIIQ
B2: the “proteolytic cleavage of gp120 (Western blot, reducing SDS-PAGE)” value in data set [29] is “Incubation at 37° for 30 min, with 10 nM HNE yielded primarily 2 bands on Western blot”.
